Assay results taken from article PMC5707354 (Nature Communications, 2017).

Legend:
[1] = biological target: N-terminal tail domain of myosin VI (NMVITAIL 814-1060) (human); test: FRET or BRET; AF555-labelled pool titrated against the FITC-labelled pool of the same construct, no additive; monomer to dimer; 25 C, 50 mM Tris-HCl pH 7.5, 150 mM NaCl, 1 mM DTT
[2] = biological target: Cargo binding domain of myosin VI (CBD 1060-1253) (human); test: fluorescence polarisation; fluorescence anisotropy; unlabelled protein titrated against the FITC-labelled partner (NMVITAIL against FITC-CBD and CBD against FITC-NMVITAIL); 25 C, 50 mM Tris-HCl pH 7.5, 150 mM NaCl, 1 mM DTT
[3] = biological target: Cargo binding domain of myosin VI (CBD 1060-1253) (human); test: FRET or BRET; Alexa555-NMVITAIL titrated to FITC-CBD (1 uM); 25 C, 50 mM Tris-HCl pH 7.5, 150 mM NaCl, 1 mM DTT; quadratic binding fit
[4] = biological target: Full-length myosin VI (non-insert isoform), recombinant, co-expressed with calmodulin (human | Xenopus) (UniProt Q9UM54)
NDP52 [5] = biological target: T1, NDP52 (Human, UniProt Q13137 1-446)
T1 sequence: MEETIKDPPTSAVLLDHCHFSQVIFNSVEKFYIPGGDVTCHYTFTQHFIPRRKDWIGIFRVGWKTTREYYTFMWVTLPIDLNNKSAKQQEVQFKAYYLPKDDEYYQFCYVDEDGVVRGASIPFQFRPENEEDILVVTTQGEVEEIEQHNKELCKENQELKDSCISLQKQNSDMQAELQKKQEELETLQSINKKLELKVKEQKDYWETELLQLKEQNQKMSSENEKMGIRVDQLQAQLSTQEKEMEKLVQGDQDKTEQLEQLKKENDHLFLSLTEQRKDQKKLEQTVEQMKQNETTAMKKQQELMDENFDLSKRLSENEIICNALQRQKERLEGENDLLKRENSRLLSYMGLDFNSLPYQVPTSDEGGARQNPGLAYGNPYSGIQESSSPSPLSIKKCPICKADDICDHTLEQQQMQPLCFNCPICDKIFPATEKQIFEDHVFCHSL

[6] = biological target: Myosin VI tail (MVITAIL 814-1253) (human); test: FRET or BRET; AF555-labelled pool titrated against the FITC-labelled pool of the same construct, no additive; monomer to dimer; 25 C, 50 mM Tris-HCl pH 7.5, 150 mM NaCl, 1 mM DTT
[7] = biological target: Myosin VI tail (MVITAIL 814-1253) (human); test: FRET or BRET; AF555-MVITAIL titrated against FITC-MVITAIL in the presence of 20 uM NDP52 and DNA; monomer to dimer; 25 C, 50 mM Tris-HCl pH 7.5, 150 mM NaCl, 1 mM DTT
[8] = biological target: Myosin VI tail (MVITAIL 814-1253) (human); test: FRET or BRET; AF555-MVITAIL and FITC-MVITAIL in the presence of 20 uM DNA; monomer to dimer; 25 C, 50 mM Tris-HCl pH 7.5, 150 mM NaCl, 1 mM DTT
[9] = biological target: Myosin VI tail (MVITAIL 814-1253) (human); test: FRET or BRET; AF555-labelled pool titrated against the FITC-labelled pool of the same construct in the presence of 20 uM NDP52; monomer to dimer; 25 C, 50 mM Tris-HCl pH 7.5, 150 mM NaCl, 1 mM DTT
[10] = biological target: N-terminal tail domain of myosin VI (NMVITAIL 814-1060) (human); test: fluorescence polarisation; fluorescence anisotropy; unlabelled protein titrated against the FITC-labelled partner (NMVITAIL against FITC-CBD and CBD against FITC-NMVITAIL); 25 C, 50 mM Tris-HCl pH 7.5, 150 mM NaCl, 1 mM DTT
NDP52 [11] = biological target: T1, NDP52; test: FRET or BRET; FITC-MVI_TAIL constructs and Alexa555-NDP52 (1 uM); 25 C, 50 mM Tris-HCl pH 7.5, 150 mM NaCl, 1 mM DTT
[12] = biological target: Myosin VI tail RRL/ARL mutant (MVITAIL RRL/ARL, R1116A) (human); test: FRET or BRET; FITC-MVITAIL constructs and Alexa555-NDP52 (1 uM NDP52 by the legend of Fig. 4d); 25 C, 50 mM Tris-HCl pH 7.5, 150 mM NaCl, 1 mM DTT; quadratic binding fit
[13] = biological target: Myosin VI tail RRL/AAA mutant (MVITAIL RRL/AAA) (human); test: as above
[14] = biological target: Myosin VI tail RRL/RRA mutant (MVITAIL RRL/RRA, L1118A) (human); test: as above
[15] = biological target: Myosin VI tail (MVITAIL 814-1253) (human); test: as above
[16] = biological target: Myosin VI tail, large insert (MVITAIL (large insert) 814-1284) (human); test: as above
NDP52 (recombinant) = biological target: T2, NDP52 (recombinant) (UniProt Q13137 1-446, Alexa Fluor 555 label in the FRET titration with MVI_TAIL; unlabelled where added as a third component); test: FRET or BRET; FITC-MVI_TAIL constructs and Alexa555-NDP52 (1 uM); 25 C, 50 mM Tris-HCl pH 7.5, 150 mM NaCl, 1 mM DTT; settings: both partners purified
T2 construct: NDP52 (SKICH domain, coiled-coil, two zinc fingers); also called Alexa555-NDP52; source: E. coli BL21 DE3, purified (HisTrap, Superdex 200)
T2 sequence (looked up): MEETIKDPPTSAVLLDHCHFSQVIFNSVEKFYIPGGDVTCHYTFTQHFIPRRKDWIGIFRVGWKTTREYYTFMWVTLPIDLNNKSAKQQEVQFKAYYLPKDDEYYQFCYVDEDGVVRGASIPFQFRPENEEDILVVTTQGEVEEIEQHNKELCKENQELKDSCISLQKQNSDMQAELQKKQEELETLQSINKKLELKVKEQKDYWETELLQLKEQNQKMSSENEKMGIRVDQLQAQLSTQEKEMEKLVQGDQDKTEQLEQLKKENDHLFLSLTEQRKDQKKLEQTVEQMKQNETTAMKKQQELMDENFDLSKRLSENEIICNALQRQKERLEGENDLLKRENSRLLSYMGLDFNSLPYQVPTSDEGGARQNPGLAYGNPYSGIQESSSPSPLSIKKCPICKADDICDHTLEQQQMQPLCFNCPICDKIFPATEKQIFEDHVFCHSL

NDP52 [17] = biological target: T1, NDP52; test: fluorescence intensity titration; FAM-DNA 50 nM; assay buffer, salt, pH and temperature not given in the material (duplex annealing in water or 50 mM Tris-HCl pH 7.5, 150 mM NaCl, 3 mM MgCl2); settings: protein: recombinant; tags: His-tag (pET151), TEV-cleaved; chain copies: 2; label: 3' FAM on strand A; blunt
MVITAIL = MVITAIL (Human, UniProt Q9UM54-5 814-1253); test: fluorescence anisotropy; FAM-DNA 50 nM; assay buffer, salt, pH and temperature not given in the material (duplex annealing in water or 50 mM Tris-HCl pH 7.5, 150 mM NaCl, 3 mM MgCl2); settings: protein: recombinant; tags: His-tag (pET151), TEV-cleaved; label: 3' FAM on strand A; blunt
MVITAIL(W1221A) = MVITAIL(W1221A) (Human, UniProt Q9UM54-5 814-1253, W1221A); test: as above; settings: protein: recombinant; tags: His-tag (pET151), TEV-cleaved; label: 3' FAM on strand A; blunt
CBD = CBD (Human, UniProt Q9UM54-5 1060-1253); test: as above; settings: protein: recombinant, tags: His-tag (pET28)
[18] = label: 3' FAM on strand A, blunt

MVITAIL(W1221A), sequence (Q9UM54 other isoform, or with tags, fused parts or gaps W1221A | W1221A W1221A): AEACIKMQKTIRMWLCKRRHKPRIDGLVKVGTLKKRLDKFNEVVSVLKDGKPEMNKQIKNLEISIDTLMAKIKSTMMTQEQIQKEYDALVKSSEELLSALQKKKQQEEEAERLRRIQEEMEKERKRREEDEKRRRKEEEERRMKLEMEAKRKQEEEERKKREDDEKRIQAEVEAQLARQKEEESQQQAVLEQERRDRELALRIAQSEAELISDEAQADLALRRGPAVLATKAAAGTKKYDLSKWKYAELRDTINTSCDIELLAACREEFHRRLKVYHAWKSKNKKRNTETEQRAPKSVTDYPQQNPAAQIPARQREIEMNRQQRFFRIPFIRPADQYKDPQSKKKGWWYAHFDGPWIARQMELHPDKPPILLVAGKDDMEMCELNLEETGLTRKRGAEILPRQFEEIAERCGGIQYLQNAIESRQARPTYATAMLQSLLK
MVITAIL, sequence (Q9UM54 other isoform, or with tags, fused parts or gaps): as the sequence (Q9UM54 other isoform, or with tags, fused parts or gaps W1221A | W1221A W1221A) above, with A408W counted along it

“N-terminal tail domain of myosin VI (NMVITAIL 814-1060) (domain or fragment)” showed a Kd [1] of 3.1 µM, a Kd [2] of 4 µM and a Kd [3] of 4.5 µM.

“Full-length myosin VI (non-insert isoform), recombinant, co-expressed with calmodulin (from UniProt Q9UM54-5 1-1253; P0DP33 1-149) (complex)” showed a steady-state actin-activated ATPase rate constant of MVI, reduction on addition of NDP52 [4] of 50% and a velocity of actin filaments in the sliding filament assay with MVI pre-incubated with / immobilised through NDP52 (0.1, 0.5 or 1 μM); two populations, 50–60 and 90 nm s^−1 (NDP52 [5]) of 90 nm/s.

With “Myosin VI tail (MVITAIL 814-1253) (domain or fragment)” the Kd [6] was 27 µM, the Kd [7] was 2.5 µM and the Kd [8] was 29 µM. It also gave a Kd [9] of 2.3 µM.

“Cargo binding domain of myosin VI (CBD 1060-1253) (domain or fragment)” gave a Kd [10] of 4.2 µM.

“MVI_(TAIL) with the leucine of the RRL motif removed (RRA) (domain or fragment)” gave a fold decrease in affinity against wild-type MVI TAIL (NDP52 [11]) of 10 fold.

B1: NDP52 (1-end) (natural protein)
chain: MEETIKDPPTSAVLLDHCHFSQVIFNSVEKFYIPGGDVTCHYTFTQHFIPRRKDWIGIFRVGWKTTREYYTFMWVTLPIDLNNKSAKQQEVQFKAYYLPKDDEYYQFCYVDEDGVVRGASIPFQFRPENEEDILVVTTQGEVEEIEQHNKELCKENQELKDSCISLQKQNSDMQAELQKKQEELETLQSINKKLELKVKEQKDYWETELLQLKEQNQKMSSENEKMGIRVDQLQAQLSTQEKEMEKLVQGDQDKTEQLEQLKKENDHLFLSLTEQRKDQKKLEQTVEQMKQNETTAMKKQQELMDENFDLSKRLSENEIICNALQRQKERLEGENDLLKRENSRLLSYMGLDFNSLPYQVPTSDEGGARQNPGLAYGNPYSGIQESSSPSPLSIKKCPICKADDICDHTLEQQQMQPLCFNCPICDKIFPATEKQIFEDHVFCHSL
modifications: Alexa Fluor 555 label (site not stated)
B1 showed a Kd [12] of 4.6 µM, a Kd [13] of 63 µM and a Kd [14] of 21 µM. The Kd [15] was 3.2 µM and the Kd [16] was 9.8 µM.

B2: MVI_(TAIL) (large insert) (domain or fragment)
chain: AEACIKMQKTIRMWLCKRRHKPRIDGLVKVGTLKKRLDKFNEVVSVLKDGKPEMNKQIKNLEISIDTLMAKIKSTMMTQEQIQKEYDALVKSSEELLSALQKKKQQEEEAERLRRIQEEMEKERKRREEDEKRRRKEEEERRMKLEMEAKRKQEEEERKKREDDEKRIQAEVEAQLARQKEEESQQQAVLEQERRDRELALRIAQSEAELISDEAQADLALRSLDSYPVTSKNDGTRPKMTPEQMAKEMSEFLSRGPAVLATKAAAGTKKYDLSKWKYAELRDTINTSCDIELLAACREEFHRRLKVYHAWKSKNKKRNTETEQRAPKSVTDYAQQNPAAQIPARQREIEMNRQQRFFRIPFIRPADQYKDPQSKKKGWWYAHFDGPWIARQMELHPDKPPILLVAGKDDMEMCELNLEETGLTRKRGAEILPRQFEEIWERCGGIQYLQNAIESRQARPTYATAMLQSLLK
modifications: FITC label
In the case of B2, the “fold reduction of binding against wild-type MVI_TAIL” value (NDP52 (recombinant)) is reported as 4 fold.

B3: ds40 (dsDNA)
DNA 1: TTAGTTGTTCGTAGTGCTCGTCTGGCTCTGGATTACCCGC
DNA 2: GCGGGTAATCCAGAGCCAGACGAGCACTACGAACAACTAA
For B3, the Kd (NDP52 [17]) was 0.08 ± 0.025 µM, the Kd (MVITAIL) was 2.5 µM and the Kd (MVITAIL(W1221A)) was 0.3 ± 0.03 µM. It also gave a Kd (CBD; [18]) of 0.1 µM.

B4: ds15 (15 bp) (dsDNA)
DNA 1: TTAGTTGTTCTCTGG
DNA 2: CCAGAGAACAACTAA
Work on B4 yielded a Kd (CBD; [18]) of 0.5 ± 0.045 µM.

TCTGGCTCTGGATTACCCGC (ssDNA) [ss20] showed a Kd (CBD; label: 3' FAM) of 0.11 ± 0.035 µM.

In the case of TTTTTTTTTTTTTTTTTTTT (ssDNA) [dT20], the Kd (CBD) is reported as 0.12 ± 0.025 µM.

TTAGTTGTTCGTAGTGCTCGTCTGGCTCTGGATTACCCGC (ssDNA) [ss40] was tested, and the Kd (CBD; label: 3' FAM) was 0.12 ± 0.035 µM.
